Usually IC50 stands for the concentration at which inhibition is half-maximal. A word on the EC50: it is the midpoint of the concentration-response curve. The Kd is a measure of binding affinity in units of concentration. For orientation: koff means the first-order rate constant of dissociation. One may read the kon as the rate constant with which the complex forms.

Where two headings read alike, the source gives them in different places.

Data on five molecules can be found in US20240400670A1 (JIANGSU HENGRUI PHARMACEUTICALS, published 2024).

Test [1] has as its target T1, human IL-23 (Sino Biological, CT048-H08H) (human, UniProt Q9NPF7 20-189; P29460 23-328).
T1 sequence (looked up) 1: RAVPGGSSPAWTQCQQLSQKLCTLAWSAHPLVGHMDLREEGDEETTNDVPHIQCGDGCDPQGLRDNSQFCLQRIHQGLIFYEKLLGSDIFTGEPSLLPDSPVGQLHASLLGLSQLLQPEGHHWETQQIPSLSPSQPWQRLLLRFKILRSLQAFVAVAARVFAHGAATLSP
T1 sequence (looked up) 2: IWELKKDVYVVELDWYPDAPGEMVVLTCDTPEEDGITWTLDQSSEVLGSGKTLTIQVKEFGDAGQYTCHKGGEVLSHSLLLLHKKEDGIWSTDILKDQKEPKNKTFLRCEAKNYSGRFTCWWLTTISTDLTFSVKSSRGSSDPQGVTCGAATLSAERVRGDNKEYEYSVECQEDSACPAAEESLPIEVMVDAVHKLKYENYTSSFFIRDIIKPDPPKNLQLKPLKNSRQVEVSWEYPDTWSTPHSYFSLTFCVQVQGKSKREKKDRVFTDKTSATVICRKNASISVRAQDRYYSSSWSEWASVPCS
Nature of the test: cell-based or functional assay.

Test [2] has as its target T1, human IL-23 (Sino Biological, …). Nature of the test: competition ELISA, blocks IL-23/IL-23R; IL-23R coated, biotin-IL-23 + sample gradient. The method, then:
(§1) The specific procedures are as follows:
The receptor protein was diluted to 2 μg/mL with a PBS (BasalMedia, B320) buffer at pH 7.4 and added to a 96-well microplate (Corning, 3590) at 100 μL/well. The plate was incubated at 4° C. overnight. After the liquid was discarded, 1 % Casein blocking solution (Thermo, 37528) was added at 200 μL/well for blocking, and the plate was incubated at 37° C. for 2 h. After the blocking was complete, the blocking solution was discarded, and the plate was washed 3 times with a PBST buffer (pH 7.4 PBS containing 0.1 % tween-20) for later use. After the biotin-labeled ligand protein at a fixed concentration was mixed with an antibody or fusion protein diluted in a gradient, the mixture was pre-incubated at 37° C. for 30 min and then added to the blocked microplate. The plate was incubated at 37° C. for 1.5 h. After the incubation was complete, the plate was washed 3 times with PBST. Streptavidin-HRP (Invitrogen, 434323, diluted at 1:4000) was added at 100 μL/well, and the plate was incubated at 37° C. for 1 h. The supernatant was removed. After the plate was washed 3 times with PBST, TMB chromogenic substrate (KPL, 5120-0077) was added at 100 μL/well, and the plate was incubated at room temperature for 10⁻¹⁵ min. 1 M H₂SO₄ was added at 50 μL/well to terminate the reaction. The absorbance values at 450 nm were taken using a microplate reader. Curves for the inhibition of binding of the ligands to the receptors were fitted using software, and the IC₅₀ values were calculated.
Background: An ELISA detects its analyte on a solid surface through an enzyme-linked reagent.

The target is the same in test [3]. Nature of the test: ELISA, sample coated, IL-23 titrated, anti-His-HRP. On the procedure: as §1
The test sample was diluted to 2 μg/mL with a PBS (BasalMedia, B320) buffer at pH 7.4 and added to a 96-well microplate (Coming, 3590) at 100 μL/well. The plate was incubated at 4° C. overnight. After the liquid was discarded, 5 % skim milk (BD, 232100) diluted with PBS was added at 300 μL/well for blocking, and the mixture was incubated at 37° C. for 2 h. After the blocking was completed, the blocking solution was discarded, and the plate was washed 3 times with a PBST buffer (pH 7.4, PBS containing 0.1 % tween-20). […] After the incubation, the plate was washed 3 times with PBST. […] After the plate was washed 3 times with PBST, a TMB chromogenic substrate (KPL, 5120-0077) was added at 100 μL/well, and the mixture was incubated at room temperature for 10⁻¹⁵ min, and then 1 M H₂SO₄ was added at 50 μL/well to terminate the reaction. The absorbance values at 450 nm were taken using a microplate reader. The binding curves of antibodies to antigens were fitted using software, and the EC₅₀ values were calculated.

In test [4] the target is T2, mouse IL-23 (R&D Systems, 1887-ML/CF) (mouse, UniProt Q9EQ14 22-196; P43432 23-335).
T2 construct: also called Mouse IL-23 p19
T2 sequence (looked up) 1: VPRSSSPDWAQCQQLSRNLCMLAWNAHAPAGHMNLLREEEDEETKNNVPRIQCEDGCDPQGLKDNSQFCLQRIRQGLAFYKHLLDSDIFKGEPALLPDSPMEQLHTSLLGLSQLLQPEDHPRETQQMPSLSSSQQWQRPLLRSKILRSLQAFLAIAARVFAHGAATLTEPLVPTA
T2 sequence (looked up) 2: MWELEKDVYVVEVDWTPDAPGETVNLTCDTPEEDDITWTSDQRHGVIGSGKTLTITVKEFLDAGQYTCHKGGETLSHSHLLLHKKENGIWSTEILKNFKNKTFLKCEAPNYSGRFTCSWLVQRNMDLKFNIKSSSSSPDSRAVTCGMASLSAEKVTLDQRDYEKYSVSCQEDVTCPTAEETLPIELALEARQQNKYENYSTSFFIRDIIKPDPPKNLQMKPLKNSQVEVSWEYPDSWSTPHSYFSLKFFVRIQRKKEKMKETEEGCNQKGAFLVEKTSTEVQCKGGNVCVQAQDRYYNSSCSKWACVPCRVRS
Kind of test: SPR (Biacore), Protein A capture of sample.

Test [5] addresses T1, human IL-23 (Sino Biological, …). Kind of test: SPR (Biacore), Protein A capture of sample, 1:1 model. The method, then:
(§2) A certain amount of test sample was subjected to affinity capture by a biosensor chip Protein A (GE, 29127556), and then antigens at a series of concentration gradients were allowed to flow on the surface of the chip. The reaction signals were detected in real time by using Biacore (GE, 8 K) to obtain association and dissociation curves. After the dissociation was completed for each cycle, the biochip was washed and regenerated with a 10 mM glycine-hydrochloric acid solution at pH 1.5 (GE, BR-1003-54). Fitting was performed based on the experimental data using BlAevaluation version 4.1 software with a 1:1 model, and affinity values were obtained.
Background: SPR reads the build-up and loss of mass on a sensor chip optically.

Test [6] addresses cynomolgus monkey IL-23 (Acro Biosystems, ILB-CM52W8) (cynomolgus monkey, UniProt H6WS56 20-189). The test is described as above. On the procedure: as §2
Test [7] deals with T3, IL-23 (R&D Systems, 1290-IL-010) (UniProt Q9NPF7 20-189; P29460 23-328).
T3 sequence (looked up) 1: T1 sequence (looked up) 1
T3 sequence (looked up) 2: T1 sequence (looked up) 2
Kind of test: cell-based or functional assay.

Test [8] has as its target T1, human IL-23 (Sino Biological, …). Kind of test: cell-based or functional assay. This is another data set of the same source.

B1: Hu38-4 (antibody, human IgG1, kappa, L234A L235A, V domains shown)
VH: EFQLVQSGAEVKKPGASVKVSCKASGYTFTDHNMNWVRQAPGQRLEWMGVINPNYGTTTYNQKFKGRVTITVDTSASTAYMELSSLRSEDTAVYYCARRGFAYWGQGTLVTVSS
VL: DIVMTQTPLSLPVTPGEPASISCRSSKSLLYKDGKTYLNWFLQKPGQSPQLLIYLMQTRASGVPDRFSGSGSGTDLTLKISRVEAEDVGVYYCQQIAEYPFTFGSGTKLEIKR
notes: humanized mAb38, IgG1/kappa
For B1, in test [1], the “Activity in inhibiting proliferation of BaF3-IL-23R cells (IC50, nM)” value (“Activity in inhibiting proliferation” for short) worked out at 0.122 nM. In addition, in test [2], the 50% inhibitory concentration (IC50) was 427 pM. This molecule also returned an EC50 in test [3] of 1880 pM. Further, the binding result in test [4] is “no binding”. In test [5], this molecule gave a Kd of 196 pM, a koff of 6.92e-05 s⁻¹ and a kon of 353000 M⁻¹ s⁻¹. For the same molecule, in test [6], the Kd was 76.8 pM, the koff was 3.09e-05 s⁻¹ and the kon worked out at 402000 M⁻¹ s⁻¹.

B2: Hu29-19 (antibody, human IgG1, kappa, L234A L235A, V domains shown)
VH: QVTLKESGPVLVKPTETLTLTCTVSGFSLTNYAISWVRQPPGKGLEWLGVIWTGGGTNYNSGIKSRLTISKDNSKSQVVLTMTNMDPVDTARYYCVREGDYGSYAGAMDYWGQGTTVTVSS
VL: DIVLTQSPDSLAVSLGERATINCRASESVDYYGISSMHWFQQKPGQPPKLLIYRASNLESGIPARFSGSGSRTDFTLTISSLQAEDVAVYYCQQANKDPYTFGGGTKVEIKR
notes: humanized mAb29, IgG1/kappa
Consider B2, for which, in test [7], the “IC50 for inhibiting IL-17 secretion” value came out at 17.8 pM. The IC50 in test [2] stood at 478 pM. Also, the EC50 in test [3] was determined as 1110 pM. For the same molecule, the binding result in test [4] was “no binding”. In test [5], this molecule had a dissociation constant (Kd) of 15.1 pM, a koff of 4.08e-05 s⁻¹ and an on-rate constant (kon) of 2.71e+06 M⁻¹ s⁻¹. In test [6], this molecule had a Kd of 70.8 pM, a koff of 0.000192 s⁻¹ and a kon of 2.71e+06 M⁻¹ s⁻¹. In test [8], the “Activity in inhibiting proliferation” value came to 0.194 nM.

B3: Hu29-24 (antibody, human IgG1, kappa, L234A L235A)
heavy: not shown
light: DIVLTQSPDSLAVSLGQRATINCRASESVDYYGISSMHWFQQKPGQPPKLLIYRASNLESGIPARFSGSGSRTDFTLTISSLQAEDVAVYYCQQANKDPYTFGGGTKVEIKRTVAAPSVFIFPPSDEQLKSGTASVVCLLNNFYPREAKVQWKVDNALQSGNSQESVTEQDSKDSTYSLSSTLTLSKADYEKHKVYACEVTHQGLSSPVTKSFNRGEC
notes: humanized mAb29, IgG1/kappa
B3: the “IC50 for inhibiting IL-17 secretion” value in test [7] was 28.9 pM. Also, the IC50 in test [2] turned out to be 488 pM. Further, the response in test [3] was half-maximal at 1220 pM (EC50). For the same molecule, the binding result in test [4] is “no binding”. Moreover, the Kd is 14.9 pM in test [5] and 85.7 pM in test [6]. The “Activity in inhibiting proliferation” value in test [8] was determined as 0.178 nM.

B4: Ch29 (antibody, human IgG1, kappa, L234A L235A, V domains shown)
VH: QVQLKESGPGLVAPSQSLSITCTVSGFSLTSYAISWVRQPPGKGLEWLGVIWTGGGTNYNSGIKSRLTISKDNSKSQVFLNMNSLQTEDTARYYCVREGDYGSYAGAMDYWGQGTSVTVSS
VL: DIVLTQSPASLAVSLGQRATISCRASESVDYYGISSMHWFQQKPGQPPKLLIYRASNLESGIPARFSGSGSRTDFTLTINRVETDDVATYYCQQANKDPYTFGGGTKLEIKR
notes: chimeric: murine variable regions on hIgG1/hkappa; also called chimeric antibody of mAb29
For the molecule B4, the IC50 in test [2] is 386 pM. In addition, the EC50 in test [3] amounted to 1160 pM. In test [5], this molecule came in with a Kd of 20.7 pM, an off-rate constant (koff) of 8.4e-05 s⁻¹ and a kon of 4.05e+06 M⁻¹ s⁻¹. For the same molecule, in test [8], the “Activity in inhibiting proliferation” value is 0.175 nM.

B5: Ch38 (antibody, human IgG1, kappa, L234A L235A, V domains shown)
VH: EFQLQQSGPELVKPGASVKISCKASGYSFTDHNMNWVKQSNGKSLEWIGVINPNYGTTTYNQKFKGKATLTVDQSSSTAYMQLNILTSEDSAVYYCARRGFAYWGQGTLVTVSA
VL: DIVISQDELSNPVTSGESVSISCRSSKSLLYKDGKTYLNWFLQRPGQSPQLLIYLMSTRASGVSDRFSGSGSGTDLTLEISRVKAEDVGVYYCQQIAEYPFTFGSGTKLEIKR
notes: chimeric: murine variable regions on hIgG1/hkappa; also called chimeric antibody of mAb38
As for B5, the 50% inhibitory concentration (IC50) in test [2] turned out to be 361 pM. In test [3], the midpoint of the response, the EC50, lay at 1830 pM. For the same molecule, in test [5], the Kd is 90.1 pM, the koff amounted to 5.65e-05 s⁻¹ and the kon was determined as 627000 M⁻¹ s⁻¹. For the same molecule, in test [8], the “Activity in inhibiting proliferation” value stood at 0.222 nM.
